Target: genome-edited CXCR4 fused to Nluc (human (endogenous in HEK293FT)) (UniProt P61073)
Sequence of UniProt P61073 (P61073 whole entry, the tested form may be a part): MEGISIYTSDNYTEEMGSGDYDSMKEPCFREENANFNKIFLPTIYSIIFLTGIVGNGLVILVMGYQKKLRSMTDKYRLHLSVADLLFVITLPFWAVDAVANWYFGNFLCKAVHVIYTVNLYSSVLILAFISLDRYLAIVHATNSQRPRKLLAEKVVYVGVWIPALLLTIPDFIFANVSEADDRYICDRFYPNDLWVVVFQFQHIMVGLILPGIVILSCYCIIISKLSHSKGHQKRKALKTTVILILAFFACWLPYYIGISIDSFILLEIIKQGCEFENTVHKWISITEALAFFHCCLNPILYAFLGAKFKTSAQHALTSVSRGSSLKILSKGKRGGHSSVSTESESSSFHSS

CXCL12 (from UniProt P48061 22-93) (ligand)
inhibition of forskolin (5 µM)-mediated cAMP accumulation (HTRF) in HEK293FT cells expressing genome-edited CXCR4/Nluc: 8.6 pEC50
